Target: human CCR8 (HA-tagged) on stably transfected HEK293 cells (human), P51685
Experiment: flow cytometry on cells
Settings: remark: other sources report otherwise

human CCR8 (HA-tagged) on stably transfected HEK293 cells (human), P51685, sequence (P51685 whole entry): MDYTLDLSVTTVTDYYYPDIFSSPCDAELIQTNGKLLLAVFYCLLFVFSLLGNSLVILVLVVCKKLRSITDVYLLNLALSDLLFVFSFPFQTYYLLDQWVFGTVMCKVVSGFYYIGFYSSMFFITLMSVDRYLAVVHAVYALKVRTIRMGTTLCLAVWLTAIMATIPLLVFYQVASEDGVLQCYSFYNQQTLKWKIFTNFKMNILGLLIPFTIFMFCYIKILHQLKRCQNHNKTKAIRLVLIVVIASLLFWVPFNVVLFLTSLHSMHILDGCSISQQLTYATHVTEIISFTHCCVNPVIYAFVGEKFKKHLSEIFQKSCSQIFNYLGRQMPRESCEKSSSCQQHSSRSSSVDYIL

B1: unlabeled human recombinant CCL18, P55774 21-89 (ligand)
chain: AQVGTNKELCCLVYTSWQIPQKFIVDYSETSPQCPKPGVILLTKRGRQICADPNKKWVQKYISDLKLNA
- IC50: 4.1 nM

Reference: paper PMC7616283
